This test addresses SpyTag-VP2 (N-terminal SpyTag chimera of the major structural protein VP2 of parvovirus B19) (not stated | parvovirus B19). Briefly: SEC + other: light scattering (MALS, Zetasizer Ultra); different amounts of SpyTag-VP2 (2.5-60 mL of 0.142 mg/mL) loaded on a 5-mL HisTrap HP column; peak run on Sephacryl 300-HR in 2 M GdnHCl buffer; fractions of 18-28 nm pooled, BCA.

The values that follow come from article PMC10803429.

For the substance “SpyTag-VP2 (N-terminal SpyTag chimera of the major structural protein VP2 of parvovirus B19)”, the percent of the loaded protein recovered as VLPs stood at 95%.
